Measurements from patent WO2016155745A1 (dated 2016).

Assays:
murine recombinant PAD2 = molecular target: T1, murine recombinant PAD2 (mouse, UniProt Q08642 1-673, limits assumed); assay: ELISA, culture supernatant 1:20 on mPAD2-coated plates (Fig. 3)
T1 construct: also called mPAD2; murine PAD2

[1] = molecular target: full-length human recombinant PAD4 (human, UniProt Q9UM07 1-663); assay: ELISA, purified mAb 1:100 on PAD-coated plates (Fig. 2)
[2] = molecular target: T2, full-length human recombinant PAD2 (human, UniProt Q9Y2J8 1-665); assay: as above
T2 construct: also called rhPAD2; recombinant human PAD2

[3] = molecular target: T3, full-length human recombinant PAD3 (human, UniProt Q9ULW8 1-664); assay: as above
T3 construct: mature; Full-length recombinant protein coated on plates at 100 ng/mL
T3 sequence (looked up): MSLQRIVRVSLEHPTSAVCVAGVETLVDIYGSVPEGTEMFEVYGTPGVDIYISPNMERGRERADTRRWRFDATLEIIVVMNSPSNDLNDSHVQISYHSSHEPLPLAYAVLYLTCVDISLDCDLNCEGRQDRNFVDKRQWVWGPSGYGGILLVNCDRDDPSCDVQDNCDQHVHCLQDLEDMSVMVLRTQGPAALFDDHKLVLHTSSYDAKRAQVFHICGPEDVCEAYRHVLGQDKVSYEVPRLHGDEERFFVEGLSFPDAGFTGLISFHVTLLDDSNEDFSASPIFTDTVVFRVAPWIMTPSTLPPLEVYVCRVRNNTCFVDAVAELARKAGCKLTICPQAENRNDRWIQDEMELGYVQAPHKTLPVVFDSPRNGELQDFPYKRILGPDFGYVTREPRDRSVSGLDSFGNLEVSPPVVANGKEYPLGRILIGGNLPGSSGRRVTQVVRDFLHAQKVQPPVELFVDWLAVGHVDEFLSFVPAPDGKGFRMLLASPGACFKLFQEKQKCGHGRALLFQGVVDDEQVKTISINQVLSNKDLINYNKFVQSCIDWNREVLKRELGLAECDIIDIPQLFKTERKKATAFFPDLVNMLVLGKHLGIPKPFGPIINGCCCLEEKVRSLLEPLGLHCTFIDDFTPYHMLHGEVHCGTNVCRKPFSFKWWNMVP

[4] = molecular target: T2, full-length human recombinant PAD2; assay: ELISA, culture supernatant 1:20 on PAD2-coated plates (Fig. 3)

Measured: binding result

T1 sequence (Q08642 whole entry): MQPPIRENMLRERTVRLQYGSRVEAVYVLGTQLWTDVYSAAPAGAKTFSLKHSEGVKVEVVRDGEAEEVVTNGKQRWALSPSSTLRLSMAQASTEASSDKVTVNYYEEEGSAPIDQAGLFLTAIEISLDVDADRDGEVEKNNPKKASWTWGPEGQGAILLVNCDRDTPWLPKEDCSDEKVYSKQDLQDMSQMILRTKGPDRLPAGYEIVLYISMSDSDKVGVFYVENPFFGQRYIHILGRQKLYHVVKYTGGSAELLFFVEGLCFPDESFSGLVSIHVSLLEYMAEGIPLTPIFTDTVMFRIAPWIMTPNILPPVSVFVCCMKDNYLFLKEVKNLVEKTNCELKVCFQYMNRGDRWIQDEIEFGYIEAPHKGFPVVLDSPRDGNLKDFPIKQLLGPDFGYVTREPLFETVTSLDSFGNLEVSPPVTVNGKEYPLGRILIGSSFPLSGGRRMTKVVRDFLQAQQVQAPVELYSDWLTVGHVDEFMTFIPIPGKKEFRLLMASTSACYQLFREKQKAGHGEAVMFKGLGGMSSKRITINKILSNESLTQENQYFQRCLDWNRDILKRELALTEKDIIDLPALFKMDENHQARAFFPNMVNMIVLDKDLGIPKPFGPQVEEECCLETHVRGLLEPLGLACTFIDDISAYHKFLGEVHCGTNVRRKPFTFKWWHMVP
T2 sequence (Q9Y2J8 whole entry): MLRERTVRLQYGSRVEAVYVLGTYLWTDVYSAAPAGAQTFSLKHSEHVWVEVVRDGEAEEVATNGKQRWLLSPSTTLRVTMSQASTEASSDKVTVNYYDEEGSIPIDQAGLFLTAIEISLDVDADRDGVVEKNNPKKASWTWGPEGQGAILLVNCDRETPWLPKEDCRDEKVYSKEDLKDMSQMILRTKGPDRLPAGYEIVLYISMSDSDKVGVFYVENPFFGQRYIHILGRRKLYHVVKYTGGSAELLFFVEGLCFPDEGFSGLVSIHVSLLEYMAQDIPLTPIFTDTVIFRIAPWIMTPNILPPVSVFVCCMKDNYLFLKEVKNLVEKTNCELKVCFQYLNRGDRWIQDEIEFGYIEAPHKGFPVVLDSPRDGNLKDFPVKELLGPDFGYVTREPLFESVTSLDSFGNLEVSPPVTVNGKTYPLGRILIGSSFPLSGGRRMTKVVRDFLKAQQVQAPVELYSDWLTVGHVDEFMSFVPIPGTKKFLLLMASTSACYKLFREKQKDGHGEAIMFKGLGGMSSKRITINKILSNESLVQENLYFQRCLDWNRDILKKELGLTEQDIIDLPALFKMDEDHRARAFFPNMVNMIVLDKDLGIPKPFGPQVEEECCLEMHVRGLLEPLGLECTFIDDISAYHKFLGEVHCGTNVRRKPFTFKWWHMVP
full-length human recombinant PAD4, sequence (Q9UM07 whole entry): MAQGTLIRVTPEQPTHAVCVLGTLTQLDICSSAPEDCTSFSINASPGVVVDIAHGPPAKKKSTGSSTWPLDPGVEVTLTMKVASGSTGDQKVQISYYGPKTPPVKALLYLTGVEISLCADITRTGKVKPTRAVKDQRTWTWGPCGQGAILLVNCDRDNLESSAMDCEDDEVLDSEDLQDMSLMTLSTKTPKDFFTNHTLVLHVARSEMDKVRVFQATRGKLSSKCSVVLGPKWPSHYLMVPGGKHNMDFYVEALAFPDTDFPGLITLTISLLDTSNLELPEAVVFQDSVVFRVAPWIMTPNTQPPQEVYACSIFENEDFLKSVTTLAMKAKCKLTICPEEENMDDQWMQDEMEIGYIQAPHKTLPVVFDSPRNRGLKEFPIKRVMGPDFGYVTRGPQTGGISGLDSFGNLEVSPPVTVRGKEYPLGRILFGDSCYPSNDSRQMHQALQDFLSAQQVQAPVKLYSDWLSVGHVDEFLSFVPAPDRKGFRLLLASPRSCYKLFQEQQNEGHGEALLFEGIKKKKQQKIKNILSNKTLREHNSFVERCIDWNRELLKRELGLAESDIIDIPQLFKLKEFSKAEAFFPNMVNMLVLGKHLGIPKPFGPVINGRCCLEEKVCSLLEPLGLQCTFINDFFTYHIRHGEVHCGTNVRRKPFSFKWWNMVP

B1: mSol4 (antibody, V domains shown)
VH: LEESGGDLVKLGGSLKLSCAASGFTFSSYYMSWVRQTPEKRLELVAAIHSDGGNTYYPDTVKGRFTISRDNAKNTLYLQMSSLKSEDTALYYCARHSYYGSSYDYWGQGTTLTVSS
VL: DIVLTQSPLSLPVSLGDQASISCESSQSLVHSNGITYLHWYLQKPGQSPKLLIYKVSHRFSGVPDRFSGSGSGTDFTLKISRVEAVDLGVYFCSQSTHVPFTFGSGTKLEIKR
notes: also called cross-reactive anti-PAD antibody mSol4
not listed: [4]
binds: all other assays above

B2: mSol3 (antibody, V domains shown)
VH: EVQLEESGADLVKPGASVKLSCKASGYTFTSYWMHWVKQRPGQGLEWIGEIIPSNGHTNYNEKFKSKATLTVDKSSSTAYMQLSSLTPEDSAVYYCARGRDFFYGFGDYWGQGTTLTVSS
VL: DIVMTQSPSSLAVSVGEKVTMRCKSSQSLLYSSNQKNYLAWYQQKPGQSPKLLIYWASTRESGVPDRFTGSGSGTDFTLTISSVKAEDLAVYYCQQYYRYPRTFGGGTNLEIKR
notes: also called cross-reactive anti-PAD antibody mSol3
not listed: [2]
binds: all other assays above
